Read-outs that look alike come from different tables or passages of the source.
Legend:
[1] = molecular target: T1, MYB70 (Arabidopsis thaliana, UniProt O22179 1-309); test: EMSA
[2] = molecular target: T1, MYB70; test: EMSA; remark: listed apart in the source

Binder | binding result [1] | binding result [2]
GH3.3 probe (dsDNA) DNA 1: ATCAAGAATTAGTTTTAGTTATCAATAAATAGGA DNA 2: TCCTATTTATTGATAACTAAAACTAATTCTTGAT | binds | –
PER57 probe (PER probe) (dsDNA) DNA 1: GCCTCAACTAATAAGTTGTTATGTGCAA DNA 2: TTGCACATAACAACTTATTAGTTGAGGC | – | binds
GPAT5 probe (dsDNA) DNA 1: AATCATAGTTTTGTTACAAGCGAAATCTGAAA DNA 2: TTTCAGATTTCGCTTGTAACAAAACTATGATT | – | binds

Source: publication PMC8551079
